In publication PMC2330087, “Mechanistic Insights into a Novel Exporter-Importer System of Mycobacterium tuberculosis Unravel Its Role in Trafficking of Iron” (PLoS ONE, 2008):

B1: rIrtB (recombinant purified IrtB, Rv1349) (natural protein)
chain: MIRTWIALVPNDHRARLIGFALLAFCSVVARAVGTVLLVPLMAALFGEAPQRAWLWLGWLSAATVAGWVLDAVTARIGIELGFAVLNHTQHDVADRLPVVRLDWFTAENTATARQAIAATGPELVGLVVNLVTPLTSAILLPAVIALALLPISWQLGVAALAGVPLLLGALWASAAFARRADTAADKANTALTERIIEFARTQQALRAARRVEPARSLVGNALASQHTATMRLLGMQIPGQLLFSIASQLALIVLAGTTAALTITGTLTVPEAIALIVVMVRYLEPFTAVSELAPALESTRATLGRIGSVLTAPVMVAGSGTWRDGAVVPRIEFDDVAFGYDGGSGPVLDGVSFCLQPGTTTAIVGPSGCGKSTILALIAGLHQPTRGRVLIDGTDVATLDARAQQAVCSVVFQHPYLFHGTIRDNVFAADPGASDDQFAQAVRLARVDELIARLPDGANTIVGEAGSALSGGERQRVSIARALLKAAPVLLVDEATSALDAENEAAVVDALAADPRSRTRVIVAHRLASIRHADRVLFVDDGRVVEDGSISELLTAGGRFSQFWRQQHEAAEWQILAE
notes: also called p28-IrtB
B2: rIrtA (recombinant purified IrtA, Rv1348) (natural protein)
chain: MARGLQGVMLRSFGARDHTATVIETISIAPHFVRVRMVSPTLFQDAEAEPAAWLRFWFPDPNGSNTEFQRAYTISEADPAAGRFAVDVVLHDPAGPASSWARTVKPGATIAVMSLMGSSRFDVPEEQPAGYLLIGDSASIPGMNGIIETVPNDVPIEMYLEQHDDNDTLIPLAKHPRLRVRWVMRRDEKSLAEAIENRDWSDWYAWATPEAAALKCVRVRLRDEFGFPKSEIHAQAYWNAGRAMGTHRATEPAATEPEVGAAPQPESAVPAPARGSWRAQAASRLLAPLKLPLVLSGVLAALVTLAQLAPFVLLVELSRLLVSGAGAHRLFTVGFAAVGLLGTGALLAAALTLWLHVIDARFARALRLRLLSKLSRLPLGWFTSRGSGSIKKLVTDDTLALHYLVTHAVPDAVAAVVAPVGVLVYLFVVDWRVALVLFGPVLVYLTITSSLTIQSGPRIVQAQRWAEKMNGEAGSYLEGQPVIRVFGAASSSFRRRLDEYIGFLVAWQRPLAGKKTLMDLATRPATFLWLIAATGTLLVATHRMDPVNLLPFMFLGTTFGARLLGIAYGLGGLRTGLLAARHLQVTLDETELAVREHPREPLDGEAPATVVFDHVTFGYRPGVPVIQDVSLTLRPGTVTALVGPSGSGKSTLATLLARFHDVERGAIRVGGQDIRSLAADELYTRVGFVLQEAQLVHGTAAENIALAVPDAPAEQVQVAAREAQIHDRVLRLPDGYDTVLGANSGLSGGERQRLTIARAILGDTPVLILDEATAFADPESEYLVQQALNRLTRDRTVLVIAHRLHTITRADQIVVLDHGRIVERGTHEELLAAGGRYCRLWDTGQGSRVAVAAAQDGTR
notes: also called p23-IrtA

How the values were obtained:
[1] = target: IrtB-Rv2895c two-component system (rIrtB in LP-49 liposomes with rRv2895c) (Mycobacterium tuberculosis, UniProt P9WL31+P9WQJ7)
IrtB-Rv2895c two-component system (rIrtB in LP-49 liposomes with rRv2895c), sequence (P9WL31 whole entry, one chain of several): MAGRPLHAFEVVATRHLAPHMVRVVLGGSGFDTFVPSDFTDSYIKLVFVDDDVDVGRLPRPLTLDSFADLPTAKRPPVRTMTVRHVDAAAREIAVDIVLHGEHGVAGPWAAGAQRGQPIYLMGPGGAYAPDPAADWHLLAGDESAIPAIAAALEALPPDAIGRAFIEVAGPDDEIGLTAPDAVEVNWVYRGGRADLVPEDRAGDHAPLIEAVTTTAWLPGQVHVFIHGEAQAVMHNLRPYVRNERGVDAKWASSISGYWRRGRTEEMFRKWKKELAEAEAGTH

[2] = target: the molecule itself; experiment: SEC + other: circular dichroism

| Molecule | inorganic phosphate release in proteoliposomes [1] | binding result [2] |
| --- | --- | --- |
| Nc1ncnc2c1ncn2[C@@H]1O[C@H](COP(=O)(O)OP(=O)(O)OP(=O)(O)O)[C@@H](O)[C@H]1O [ATP] | The increase in ATPase activity of (a) LP-49 liposomes after incubation with Fe-cMyco bound rRv2895c | – |
| B1 | – | binds |
| B2 | – | binds |
